Measured values as given in article PMC10676354.

Assays:
[1] = fluorometric AGE assay, HEK293 mitochondria, vehicle (PBS); conditions: glycan lost; control: DJ1 WT
[2] = fluorometric AGE assay, HEK293 mitochondria, MGO 30 min; conditions: glycan lost; control: DJ1 WT

B1: DJ1: T19A (protein)
parent chain: MASKRALVILAKGAEEMETVIPVDVMRRAGIKVTVAGLAGKDPVQCSRDVVICPDASLEDAKKEGPYDVVVLPGGNLGAQNLSESAAVKEILKEQENRKGLIAAICAGPTALLAHEIGFGSKVTTHPLAKDKMMNGGHYTYSENRVEKDGLILTSRGPGTSFEFALAIVEALNGKEVAAQVKAPLVLKD
[1]
  other: mitochondrial protein glycation: no change
[2]
  other: mitochondrial protein glycation: increases
